One assay relates to HBV. Kind of assay: supernatant HBV DNA in HepAD38 cells. The assay is classed as cell-based. The settings on record: 6-day time course. From the text:
Having regard to FIG. 12, TDF targets the HBV reverse transcriptase, thus only affecting the number virions secreted in the supernatant. In contrast, the presently designed polypeptides should affect cccDNA stability, which can be indirectly measured through levels. As expected, a significant decrease in supernatant HBV (2 log) was caused by TDF treatment. A significant, albeit lower, decrease in HBV supernatant DNA was also observed from sdAb10-2 treatment (0.5 log).

The test system of a further assay is HBeAg. The settings on record: HepAD38 cells, 6-day time course.
Assay [1] has as its system wild-type G-quadruplex of HBV cccDNA pre-core promoter region. Kind of assay: phage ELISA assay (absorbance at 450 nm), wild-type vs mutant G-quadruplex. The class given is binding. To be noted: for affinity for wild-type G-quadruplex structure of HBV cccDNA compared to mutant G-quadruplex structure: phage ELISA, WT vs MUT (G1748A). From the text: According to embodiments, methods of developing and designing the present at least one novel polypeptide comprising at least one antiviral sdAb are provided. In some embodiments, the methods comprise accessing a fully synthetic phage-display library that codes for 3-billion sdAbs clones, enabling efficient selection of in vitro humanized antibodies against virtually any antigen. Advantageously, no animals or immunization are required, allowing the selection of sdAbs that can target unprocessed G-quadruplex, thereby overcoming conventional techniques of injecting animals to raise antibodies (such techniques known to alter antigen structures).
Having regard to FIG. 4B and Table 1 herein, the at least nine polypeptides having at least one sdAb are referred to as sdAbs 1, 4, 5, 6, 7, 8, 9, 10, and 11 and comprise an amino acid sequence represented as SEQ ID NOs: 9, 10, 11, 12, 13, 14, 15, 16, and 17, respectively.
(An ELISA detects its analyte on a solid surface through an enzyme-linked reagent.)

The test system of assay [2] is HBV pre-core G-quadruplex. Kind of assay: MST binding study with HBV pre-core G-quadruplex. Here is the method:
In this Example, binding studies for at least one of the presently designed polypeptides having at least one sdAb (e.g. sdAb10M and sdAb1) with HBV pre-core G-quadruplex were performed.

The test system of the next assay is HBV cccDNA. Put plainly: pulldown assay with Hirt-extracted cccDNA from explanted HBV infected liver. The assay is classed as binding. To be noted: for interaction with cccDNA: pulldown, cccDNA from explanted HBV infected liver; for replicates that picked up cccDNA: three replicates, nested PCR detection. As to the method: In this Example 1, binding studies for at least one of the presently designed polypeptides having at least one sdAb with HBV pre-core G-quadruplex were performed using patient derived samples. For example, two of the presently developed sdAbs, namely sdAb #8 (NB01) and sdAb #1 (NB07), were produced via E. coli expression system and purified via nickel bead affinity chromatography, then size exclusion chromatography (as described in more detail herein). Pulldown assays using Hirt-extracted cccDNA from explanted liver tissue (i.e. liver transplanted secondary to HCC from HBV) were performed.
Having regard to FIG. 8B, results are provided from the pulldown study using sdAbs-bound to magnetic nickel beads with Hirt-extracted, T5 exonuclease-digested cccDNA from an explanted HBV infected liver. Beads were incubated with the corresponding sdAbs comprising, in this Example, the presently developed sdAb8 and sdAb1, washed, and incubated with cccDNA. Excess cccDNA was removed (“xsDNA” lanes), followed by 4 washing steps (“4th Wash” lanes). The sdAbs were eluted and cccDNA was detected through nested PCR (“Elution” lanes). The first lane is the DNA marker highlighting the 150 bp fragment and the next two lanes represent the “sdAb only” elutions (sdAb8 and sdAb1). Subsequent sets of 3 represent the excess cccDNA (“xs”), last washes (“W”) and elutions (“E”) from the corresponding tubes. The last three lanes represent the PCR controls, with negatives from the direct (D) and nested (N) rounds.

Assay [3] concerns HBV surface antigen (HBsAg). Put plainly: HBsAg levels following exposure to the polypeptide. To be noted: increased concentration from 50 μg/mL to 100 μg/mL. Here is the method:
Having regard to FIG. 5A, expression methods using a bacterial expression system (SDS-PAGE) yielded ˜3 mg of pure sdAbs from 1 L bacterial culture, where lane 1 represents the standard molecular weight marker and elution fractions are shown in lanes 2-6, indicating the presence of at least one polypeptides having at least one sdAb (between 18.4 kDa and 14.4 kDa markers). […] The foregoing confirms that the at least one polypeptide comprise at least one antiviral sdAb.

The next assay deals with NTCP-HUH7 cells. Put plainly: localization and entry into target cells (staining, microscopy). The assay is classed as cell-based. From the text: The foregoing one or more modifications of the at least one polypeptide sdAb10 result in antiviral efficacy. […] Alternatively, the second and third rows shown in FIG. 7 provide that both polypeptides modified to include a cell penetrating peptide coding sequence entered the target cells (i.e. the nuclei and cytoplasm being visualized Hoescht stain and by fluorescently labelled anti-vinculin antibodies, respectively).

Entries after “also recorded” stand apart in the source; their conditions may differ. Like-named read-outs stand apart in the source and are kept apart here.

Experimental for HBeAg: In this Example 3, the effects of the presently designed polypeptides on HBV replication were analyzed, HepAD38 cells that expresses HBV under the control of a tetracycline promoter were used. HepAD38 cells were plated in the presence of TDF or candidate therapeutic (sdAb10-2) without tetracycline for three days to induce HBV production and to establish a cccDNA reservoir in the nuclei of infected cells. After three days, drugs/sdAbs were replenished and the media was replenished with tetracycline to suppress HBV transcripts being produced from the plasmid, so that only HBV markers be produced from the established cccDNA reservoir. Varying drug concentrations of—TDF and sdAb10-2 were used to determine drug toxicity (TD50) and efficacy during the 6-day time course.
The ability of the presently designed polypeptides to reduce HBeAg levels was also analyzed.

Take `CC(C)OC(=O)OCOP(=O)(CO[C@H](C)Cn1cnc2c(N)ncnc21)OCOC(=O)OC(C)C.O=C(O)/C=C/C(=O)O` [TDF, Tenofovir Disoproxil Fumurate, reference compound]: the “decrease in supernatant HBV DNA” value with HBV turned out to be 2 log. Also, the HBeAg levels entry in the assay on HBeAg is “did not significantly decrease”.

B1: sdAb1: single domain antibody, amino acid sequence SEQ ID NO: 9; used as negative control (poor binder) (protein)
VHH: MAEVQLQASGGGFVQPGGSLRLSCAASGRTYRHSGMGWFRQAPGKEREFVSAISDDHNMESYYADSVKGRFTISRDNSKNTVYLQMNSLRAEDTATYYCAMTKWHGPGGPHWYWGQGTQVTVSS
modifications: Single-Domain Antibody 1
Take B1: the “interaction with pre-core G-quadruplex of cccDNA” value in assay [1] (FIG. 4) is on record as “only weakly interacted with the G-quadruplex”. Besides, the “affinity for wild-type G-quadruplex structure of HBV cccDNA compared to mutant G-quadruplex structure” value in assay [1] is recorded as “higher affinity for the wild-type G-quadruplex structure”. Further, in assay [2], the “interaction with HBV pre-core G-quadruplex” value is “did not interact with HBV pre-core G-quadruplex”. Moreover, in the assay on HBV cccDNA, the “interaction with cccDNA” value is on record as “did not interact with cccDNA” and the “replicates that picked up cccDNA” value is on record as “none of the replicates”.

B2: sdAb 5: single domain antibody, amino acid sequence SEQ ID NO: 11 (protein)
VHH: MAEVQLQASGGGFVZPGGSLRLSCAASGRTSYHTNMGWFRQAPGKEREFVSAISSSPNAATYYADSVKGRFTISRDNSKNTVYLQMNSLRAEDTATYYCARTKYGRVMGHMWYWGQGTQVTVSS
modifications: Single-Domain Antibody 5
For the molecule B2, the “affinity for wild-type G-quadruplex structure of HBV cccDNA compared to mutant G-quadruplex structure” value in assay [1] is reported as “higher affinity for the wild-type G-quadruplex structure”.

B3: sdAb 4: single domain antibody, amino acid sequence SEQ ID NO: 10 (protein)
VHH: MAEVQLQASGGGFVZPGGSLRLSCAASGRTSKWYSMGWFRQAPGKEREFVSAISYRQNIRAYYADSVKGRFTISRDNSKNTVYLQMNSLRAEDTATYYCAATHSYLFKFPTHFPQPQDYWGQGTQVTVSS
modifications: Single-Domain Antibody 4
For B3, the “affinity for wild-type G-quadruplex structure of HBV cccDNA compared to mutant G-quadruplex structure” value in assay [1] is given as “higher affinity for the wild-type G-quadruplex structure”.

B4: sdAb10: single domain antibody, amino acid sequence SEQ ID NO: 16 (protein)
VHH: MAEVQLQASGGGFVQPGGSLRLSCAASGRTSKITSMGWFRQAPGKEREFVSAISWSNGLTNYYADSVKGRFTISRDNSKNTVYLQMNSLRAEDTATYYCASKIHTKPKWYWGQGTQVTVSS
modifications: Single-Domain Antibody 10
On to B4, for which, in assay [1], the “affinity for wild-type G-quadruplex structure of HBV cccDNA compared to mutant G-quadruplex structure” value was “higher affinity for the wild-type G-quadruplex structure”. For the same molecule, in assay [3], the HBsAg levels entry is given as “dose-dependent decrease in HBsAg levels”.

B5: sdAb10-2: sdAb10 modified with CPP, NTCP-recognition and NLS sequences; full sequence SEQ ID NO: 20 (protein)
VHH: MAEVQLQASGGGFVQPGGSLRLSCAASGRTSKITSMGWFRQAPGKEREFVSAISWSNGLTNYYADSVKGRFTISRDNSKNTVYLQMNSLRAEDTATYYCASKIHTKPKWYWGQGTQVTVSSGGGGSGRKKRRQRRRPPQGGGGSNPLGFFPGGGGSDHQLDGGGGSPKKKRKVSSFLRNHHHHHH
modifications: Single-Domain Antibody 10-02
Take B5: the “entry into target cells” value with NTCP-HUH7 cells is “enter the cell; also recorded: localize and enter the target hepatocyte cells”. Besides, the “decrease in supernatant HBV DNA” value in the assay on HBV came out at 0.5 log. Further, the HBeAg levels entry in the assay with HBeAg is on record as “significantly decreased”.

B6: sdAb 7: single domain antibody, amino acid sequence SEQ ID NO: 13 (protein)
VHH: MAEVQLQASGGGFVQPGGSLRLSCAASGRTYRGETMGWFRQAPGKEREFVSAISWGWSNRAYYADSVKGRFTISRDNSKNTVYLQMNSLRAEDTATYYCASRHMRRAPWSGPGMSYWGQGTQVTVSS
modifications: Single-Domain Antibody 7
As to B6, in assay [1], the “affinity for wild-type G-quadruplex structure of HBV cccDNA compared to mutant G-quadruplex structure” value is “higher affinity for the wild-type G-quadruplex structure”.

B7: sdAb 11: single domain antibody, amino acid sequence SEQ ID NO: 17 (protein)
VHH: MAEVQLQASGGGFVQPGGSLRLSCAASGFTSESTSMGWFRQAPGKEREFVSAISRWESTEEYYADSVKGRFTISRDNSKNTVYLQMNSLRAEDTATYYCAYRMHWGGRWRWNYWGQGTQVTVSS
modifications: Single-Domain Antibody 11
For B7, the “affinity for wild-type G-quadruplex structure of HBV cccDNA compared to mutant G-quadruplex structure” value in assay [1] was “higher affinity for the wild-type G-quadruplex structure”.

B8: sdAb 9: single domain antibody, amino acid sequence SEQ ID NO: 15 (protein)
VHH: MAEVQLQASGGGFVQPGGSLRLSCAASGRTSGHYSMGWFRQAPGKEREFVSAISGRGNSLSYYADSVKGRFTISRDNSKNTVYLQMNSLRAEDTATYYCAWWHRDSHPQSGKHMRYWGQGTQVTVSS
modifications: Single-Domain Antibody 9
For B8, in assay [1], the “affinity for wild-type G-quadruplex structure of HBV cccDNA compared to mutant G-quadruplex structure” value was “higher affinity for the wild-type G-quadruplex structure”.

B9: sdAb8: single domain antibody, amino acid sequence SEQ ID NO: 14 (protein)
VHH: MAEVQLQASGGGFVQPGGSLRLSCAASGTTSGQTAMGWFRQAPGKEREFVSAISGHHTPRAYYADSVKGRFTISRDNSKNTVYLQMNSLRAEDTATYYCAWIRRKPQSWYWGQGTQVTVSS
modifications: Single-Domain Antibody 8
In the case of B9, the “affinity for wild-type G-quadruplex structure of HBV cccDNA compared to mutant G-quadruplex structure” value in assay [1] is “higher affinity for the wild-type G-quadruplex structure”. Further, the “entry into target cells” value in the assay on NTCP-HUH7 cells (listed as sdAb08) is listed as “do not enter the cells; also recorded: failed to enter target cells”. In the assay on HBV cccDNA, the “interaction with cccDNA” value is “interacts with HBV cccDNA” and the “replicates that picked up cccDNA” value is “two of the three replicates”.

B10: sdAb 6: single domain antibody, amino acid sequence SEQ ID NO: 12 (protein)
VHH: MAEVQLQASGGGFVQPGGSLRLSCAASGTGFRHTAMGWFRQAPGKEREFVSAISGHASKQAYYADSVKGRFTISRDNSKNTVYLQMNSLRAEDTATYYCAFRRAEKIYGHPMAPQKLWYWGQGTQVTVSS
modifications: Single-Domain Antibody 6
With B10, the “affinity for wild-type G-quadruplex structure of HBV cccDNA compared to mutant G-quadruplex structure” value in assay [1] is “higher affinity for the wild-type G-quadruplex structure”.

B11: sdAb10-1: sdAb10 modified with CPP, NTCP-recognition and NLS sequences; full sequence SEQ ID NO: 19 (protein)
VHH: GRKKRRQRRRPPQGGGGSMAEVQLQASGGGFVQPGGSLRLSCAASGRTSKITSMGWFRQAPGKEREFVSAISWSNGLTNYYADSVKGRFTISRDNSKNTVYLQMNSLRAEDTATYYCASKIHTKPKWYWGQGTQVTVSSGGGGSNPLGFFPGGGGSDHQLDGGGGSPKKKRKVSSFLRNHHHHHH
modifications: Single-Domain Antibody 10-01
Take B11: the “entry into target cells” value with NTCP-HUH7 cells was “enter the cell; also recorded: localize and enter the target hepatocyte cells”.

For the origin of these results see patent US12350286B2, “Polypeptides directed against viral infection and uses thereof” (QUADRUMIX BIOTECHNOLOGY INC., priority 2020, dated 2025).
